According to PMC10540216, “Activity Guided Azide-methyllysine Photo-trapping for Substrate Profiling of Lysine Demethylases” (Journal of the American Chemical Society, 2023):

B1: C1TC_HUMAN (protein, UniProt P11586 1-935, looked up)
C-1-tetrahydrofolate …: MAPAEILNGKEISAQIRARLKNQVTQLKEQVPGFTPRLAILQVGNRDDSNLYINVKLKAAEEIGIKATHIKLPRTTTESEVMKYITSLNEDSTVHGFLVQLPLDSENSINTEEVINAIAPEKDVDGLTSINAGKLARGDLNDCFIPCTPKGCLELIKETGVPIAGRHAVVVGRSKIVGAPMHDLLLWNNATVTTCHSKTAHLDEEVNKGDILVVATGQPEMVKGEWIKPGAIVIDCGINYVPDDKKPNGRKVVGDVAYDEAKERASFITPVPGGVGPMTVAMLMQSTVESAKRFLEKFKPGKWMIQYNNLNLKTPVPSDIDISRSCKPKPIGKLAREIGLLSEEVELYGETKAKVLLSALERLKHRPDGKYVVVTGITPTPLGEGKSTTTIGLVQALGAHLYQNVFACVRQPSQGPTFGIKGGAAGGGYSQVIPMEEFNLHLTGDIHAITAANNLVAAAIDARIFHELTQTDKALFNRLVPSVNGVRRFSDIQIRRLKRLGIEKTDPTTLTDEEINRFARLDIDPETITWQRVLDTNDRFLRKITIGQAPTEKGHTRTAQFDISVASEIMAVLALTTSLEDMRERLGKMVVASSKKGEPVSAEDLGVSGALTVLMKDAIKPNLMQTLEGTPVFVHAGPFANIAHGNSSIIADRIALKLVGPEGFVVTEAGFGADIGMEKFFNIKCRYSGLCPHVVVLVATVRALKMHGGGPTVTAGLPLPKAYIQENLELVEKGFSNLKKQIENARMFGIPVVVAVNAFKTDTESELDLISRLSREHGAFDAVKCTHWAEGGKGALALAQAVQRAAQAPSSFQLLYDLKLPVEDKIRIIAQKIYGADDIELLPEAQHKAEVYTKQGFGNLPICMAKTHLSLSHNPEQKGVPTGFILPIRDIRASVGAGFLYPLVGTMSTMPGLPTRPCFYDIDLDPETEQVNGLF
B2: HNRPM_HUMAN (protein, UniProt P52272 2-730, looked up)
Heterogeneous nuclear …: AAGVEAAAEVAATEIKMEEESGAPGVPSGNGAPGPKGEGERPAQNEKRKEKNIKRGGNRFEPYANPTKRYRAFITNIPFDVKWQSLKDLVKEKVGEVTYVELLMDAEGKSRGCAVVEFKMEESMKKAAEVLNKHSLSGRPLKVKEDPDGEHARRAMQKVMATTGGMGMGPGGPGMITIPPSILNNPNIPNEIIHALQAGRLGSTVFVANLDYKVGWKKLKEVFSMAGVVVRADILEDKDGKSRGIGTVTFEQSIEAVQAISMFNGQLLFDRPMHVKMDERALPKGDFFPPERPQQLPHGLGGIGMGLGPGGQPIDANHLNKGIGMGNIGPAGMGMEGIGFGINKMGGMEGPFGGGMENMGRFGSGMNMGRINEILSNALKRGEIIAKQGGGGGGGSVPGIERMGPGIDRLGGAGMERMGAGLGHGMDRVGSEIERMGLVMDRMGSVERMGSGIERMGPLGLDHMASSIERMGQTMERIGSGVERMGAGMGFGLERMAAPIDRVGQTIERMGSGVERMGPAIERMGLSMERMVPAGMGAGLERMGPVMDRMATGLERMGANNLERMGLERMGANSLERMGLERMGANSLERMGPAMGPALGAGIERMGLAMGGGGGASFDRAIEMERGNFGGSFAGSFGGAGGHAPGVARKACQIFVRNLPFDFTWKMLKDKFNECGHVLYADIKMENGKSKGCGVVKFESPEVAERACRMMNGMKLSGREIDVRIDRNA
B3: P5CS_HUMAN (protein, UniProt P54886 1-795, looked up)
Delta-1-pyrroline-5-carboxylat …: MLSQVYRCGFQPFNQHLLPWVKCTTVFRSHCIQPSVIRHVRSWSNIPFITVPLSRTHGKSFAHRSELKHAKRIVVKLGSAVVTRGDECGLALGRLASIVEQVSVLQNQGREMMLVTSGAVAFGKQRLRHEILLSQSVRQALHSGQNQLKEMAIPVLEARACAAAGQSGLMALYEAMFTQYSICAAQILVTNLDFHDEQKRRNLNGTLHELLRMNIVPIVNTNDAVVPPAEPNSDLQGVNVISVKDNDSLAARLAVEMKTDLLIVLSDVEGLFDSPPGSDDAKLIDIFYPGDQQSVTFGTKSRVGMGGMEAKVKAALWALQGGTSVVIANGTHPKVSGHVITDIVEGKKVGTFFSEVKPAGPTVEQQGEMARSGGRMLATLEPEQRAEIIHHLADLLTDQRDEILLANKKDLEEAEGRLAAPLLKRLSLSTSKLNSLAIGLRQIAASSQDSVGRVLRRTRIAKNLELEQVTVPIGVLLVIFESRPDCLPQVAALAIASGNGLLLKGGKEAAHSNRILHLLTQEALSIHGVKEAVQLVNTREEVEDLCRLDKMIDLIIPRGSSQLVRDIQKAAKGIPVMGHSEGICHMYVDSEASVDKVTRLVRDSKCEYPAACNALETLLIHRDLLRTPLFDQIIDMLRVEQVKIHAGPKFASYLTFSPSEVKSLRTEYGDLELCIEVVDNVQDAIDHIHKYGSSHTDVIVTEDENTAEFFLQHVDSACVFWNASTRFSDGYRFGLGAEVGISTSRIHARGPVGLEGLLTTKWLLRGKDHVVSDFSEHGSLKYLHENLPIPQRNTN
B4: C1TM_HUMAN (protein, UniProt Q6UB35 32-978, looked up)
Monofunctional …: SSGGGGGGGGGREGLLGQRRPQDGQARSSCSPGGRTPAARDSIVREVIQNSKEVLSLLQEKNPAFKPVLAIIQAGDDNLMQEINQNLAEEAGLNITHICLPPDSSEAEIIDEILKINEDTRVHGLALQISENLFSNKVLNALKPEKDVDGVTDINLGKLVRGDAHECFVSPVAKAVIELLEKSGVNLDGKKILVVGAHGSLEAALQCLFQRKGSMTMSIQWKTRQLQSKLHEADIVVLGSPKPEEIPLTWIQPGTTVLNCSHDFLSGKVGCGSPRIHFGGLIEEDDVILLAAALRIQNMVSSGRRWLREQQHRRWRLHCLKLQPLSPVPSDIEISRGQTPKAVDVLAKEIGLLADEIEIYGKSKAKVRLSVLERLKDQADGKYVLVAGITPTPLGEGKSTVTIGLVQALTAHLNVNSFACLRQPSQGPTFGVKGGAAGGGYAQVIPMEEFNLHLTGDIHAITAANNLLAAAIDTRILHENTQTDKALYNRLVPLVNGVREFSEIQLARLKKLGINKTDPSTLTEEEVSKFARLDIDPSTITWQRVLDTNDRFLRKITIGQGNTEKGHYRQAQFDIAVASEIMAVLALTDSLADMKARLGRMVVASDKSGQPVTADDLGVTGALTVLMKDAIKPNLMQTLEGTPVFVHAGPFANIAHGNSSVLADKIALKLVGEEGFVVTEAGFGADIGMEKFFNIKCRASGLVPNVVVLVATVRALKMHGGGPSVTAGVPLKKEYTEENIQLVADGCCNLQKQIQITQLFGVPVVVALNVFKTDTRAEIDLVCELAKRAGAFDAVPCYHWSVGGKGSVDLARAVREAASKRSRFQFLYDVQVPIVDKIRTIAQAVYGAKDIELSPEAQAKIDRYTQQGFGNLPICMAKTHLSLSHQPDKKGVPRDFILPISDVRASIGAGFIYPLVGTMSTMPGLPTRPCFYDIDLDTETEQVKGLF

Test system: KDM4A-I71AzF
Assay: CASI: photo-crosslinking with HEK293T cell extracts, StrepTactin enrichment and LC-MS/MS proteomics;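 also: lysates from HEK293T cells pretreated with a KDM4 inhibitor to raise proteome methylation, affinity-purified after ±UV, gel-resolved, trypsin-digested, with exclusive unique peptides per protein averaged per condition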
Type: binding, human
Settings: sheet "Final results but with 0.01"

Molecule	Fold change (+UV/-UV)
B1	0.9444
B2	1
B3	2.143
B4	1.091
